Test results from patent US20240132578A1.

Tests used:
Experiment in all cases: cell-based or functional assay
[1] = biological target: HIV-1 Env of pseudovirus isolate MGRM-C-009 (clade C) (HIV-1)
[2] = biological target: HIV-1 Env of isolate MGRM-A-004 (pseudovirus) (HIV-1)
[3] = biological target: HIV-1 MGRM-D-018 envelope protein (Env) on pseudovirus (HIV-1)
[4] = biological target: HIV-1 JR-CSF Env Q422A (HIV-1 (isolate JR-CSF)) (UniProt P20871)
[5] = biological target: HIV-1 Env of isolate MGRM-F1-023 (HIV-1)
[6] = biological target: HIV-1 JR-CSF Env D417A (HIV-1 (isolate JR-CSF)) (UniProt P20871)
[7] = biological target: HIV-1 Env of isolate MGRM-A-014 (subtype A) (HIV-1)
[8] = biological target: HIV-1 JR-CSF Env I424A (HIV-1 (isolate JR-CSF)) (UniProt P20871)
[9] = biological target: HIV-1 Env of isolate MGRM-D-001 (pseudovirus) (HIV-1)
[10] = biological target: HIV-1 Env of isolate CMU02 (subtype AE) (HIV-1)
[11] = biological target: HIV-1 Env of isolate MGRM-C-005 (HIV-1)
[12] = biological target: HIV-1 92UG024 Env (HIV-1)
[13] = biological target: HIV-1 JR-CSF Env N396A (HIV-1 (isolate JR-CSF)) (UniProt P20871)
[14] = biological target: HIV-1 Env of pseudovirus isolate MGRM-C-019 (clade C) (HIV-1)
[15] = biological target: HIV-1 Env of isolate MGRM-F1-016 (HIV-1)
[16] = biological target: HIV-1 Env of pseudovirus isolate APV-6 (clade B) (HIV-1)
[17] = biological target: HIV-1 Env of isolate MGRM-D-002 (HIV-1)
[18] = biological target: HIV-1 Env of isolate MGRM-G-004 (subtype G) (HIV-1)
[19] = biological target: HIV-1 Env of isolate 92UG001 (HIV-1)
[20] = biological target: HIV-1 Env of isolate CMU02 (pseudovirus) (HIV-1)
[21] = biological target: HIV-1 Env of isolate MG RM-A-012 (pseudovirus) (HIV-1)
[22] = biological target: HIV-1 Env of isolate MGRM-G-014 (subtype G) (HIV-1)
[23] = biological target: HIV-1 envelope glycoprotein (Env) of isolate MG RM-AG-005 (HIV-1)
[24] = biological target: HIV-1 Env of pseudovirus MGRM-D-026 (HIV-1)
[25] = biological target: HIV-1 envelope glycoprotein (Env) of isolate MG RM-AG-013 (HIV-1)
[26] = biological target: HIV-1 Env of pseudovirus MGRM-D-029 (HIV-1)
[27] = biological target: HIV-1 Env of pseudovirus MGRM-D-028 (HIV-1)

4995_E20 (PGT-142) (antibody), sequence (VH): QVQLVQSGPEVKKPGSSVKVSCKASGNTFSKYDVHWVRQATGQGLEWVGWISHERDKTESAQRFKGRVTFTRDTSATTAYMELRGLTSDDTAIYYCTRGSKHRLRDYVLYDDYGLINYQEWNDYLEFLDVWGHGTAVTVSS
4995_E20 (PGT-142) (antibody), sequence (VL): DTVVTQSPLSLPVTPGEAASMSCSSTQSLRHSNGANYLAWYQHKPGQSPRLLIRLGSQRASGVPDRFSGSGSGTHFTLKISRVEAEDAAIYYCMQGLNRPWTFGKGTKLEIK
PGT-143 (4980_N08) (antibody), sequence (VH): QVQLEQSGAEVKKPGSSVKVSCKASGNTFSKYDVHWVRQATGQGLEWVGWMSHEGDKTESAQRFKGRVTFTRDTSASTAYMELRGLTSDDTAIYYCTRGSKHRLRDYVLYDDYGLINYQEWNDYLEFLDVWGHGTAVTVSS
PGT-143 (4980_N08) (antibody), sequence (VL): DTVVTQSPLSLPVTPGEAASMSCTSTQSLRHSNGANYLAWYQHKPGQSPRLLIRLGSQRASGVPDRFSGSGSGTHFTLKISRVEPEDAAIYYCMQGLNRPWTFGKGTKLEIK
4993_K13 (PGT-141) (antibody), sequence (VH): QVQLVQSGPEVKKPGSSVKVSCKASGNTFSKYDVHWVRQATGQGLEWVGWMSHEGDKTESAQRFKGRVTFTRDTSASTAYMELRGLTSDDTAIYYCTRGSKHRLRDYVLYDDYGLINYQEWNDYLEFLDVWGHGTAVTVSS
4970_K22 (PGT-144) (antibody), sequence (VH): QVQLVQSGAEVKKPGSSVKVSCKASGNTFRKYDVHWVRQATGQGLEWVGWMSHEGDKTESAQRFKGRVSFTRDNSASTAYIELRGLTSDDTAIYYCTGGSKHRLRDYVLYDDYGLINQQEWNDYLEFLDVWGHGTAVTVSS
4970_K22 (PGT-144) (antibody), sequence (VL): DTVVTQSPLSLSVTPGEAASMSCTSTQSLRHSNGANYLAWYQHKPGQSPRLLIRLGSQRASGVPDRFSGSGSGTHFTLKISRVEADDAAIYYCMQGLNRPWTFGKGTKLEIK
PGT-145 (4995_P16) (antibody), sequence (VH): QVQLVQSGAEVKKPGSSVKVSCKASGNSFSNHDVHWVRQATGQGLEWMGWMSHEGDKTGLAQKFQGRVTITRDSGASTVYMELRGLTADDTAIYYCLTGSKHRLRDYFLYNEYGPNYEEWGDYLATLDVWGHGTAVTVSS
PGT-145 (4995_P16) (antibody), sequence (VL): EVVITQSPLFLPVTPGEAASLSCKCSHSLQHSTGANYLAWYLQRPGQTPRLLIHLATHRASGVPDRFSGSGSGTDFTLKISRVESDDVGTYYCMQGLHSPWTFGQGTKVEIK

5147_N06 (PGT-130) (antibody)
IC50, pseudovirus neutralization [1]: > 50 µg/mL | IC50 (µg/mL), pseudovirus neutralization [2]: > 50 µg/mL | IC50 (ug/mL), pseudovirus neutralization [3]: 0.0378 µg/mL | Fold IC50 increase relative to wild-type (pseudovirus neutralization) [4]: 1 fold | IC50 (µg/mL), pseudovirus neutralization [5]: 0.05 µg/mL | Fold IC50 increase relative to wild-type (pseudovirus neutralization) [6]: 1 fold | IC50, pseudovirus neutralization [7]: 0.161 µg/mL | Fold IC50 increase relative to wild-type (pseudovirus neutralization) [8]: 3.9 fold | IC50 (µg/mL), pseudovirus neutralization [9]: > 50 µg/mL | IC50, pseudovirus neutralization [10]: > 50 µg/mL | IC50 (µg/mL), pseudovirus neutralization [11]: 0.935 µg/mL | IC50, pseudovirus neutralization [12]: > 10 µg/mL | Fold IC50 increase relative to wild-type (pseudovirus neutralization) [13]: 1 fold | IC50, pseudovirus neutralization [14]: 0.01 µg/mL | IC50 (µg/mL), pseudovirus neutralization [15]: > 50 µg/mL

4995_P16 (PGT-145) (antibody)
IC50, pseudovirus neutralization [16]: 0.104 µg/mL | IC50 (µg/mL), pseudovirus neutralization [17]: > 50 µg/mL | IC50 (µg/mL), pseudovirus neutralization [18]: > 50 µg/mL | IC50 (µg/mL), pseudovirus neutralization [19]: > 50 µg/mL | IC50 (µg/mL), single-round pseudovirus neutralization [20]: 1.43 µg/mL | IC50 (µg/mL), single-round pseudovirus neutralization [21]: 0.23 µg/mL | IC50 (µg/mL), pseudovirus neutralization [22]: 0.144 µg/mL

PGT-141 (4964_G22; 4993_K13) (antibody)
IC50 [23]: 0.497 µg/mL | IC50, pseudovirus neutralization [24]: 32.5 µg/mL | IC50 [25]: > 50 µg/mL | IC50, pseudovirus neutralization [26]: 0.057 µg/mL | IC50, pseudovirus neutralization [27]: < 50 µg/mL

4970_K22 (PGT-144) (antibody)
IC50, pseudovirus neutralization [16]: > 50 µg/mL | IC50 (µg/mL), pseudovirus neutralization [17]: > 50 µg/mL | IC50 (µg/mL), pseudovirus neutralization [18]: > 50 µg/mL | IC50 (µg/mL), pseudovirus neutralization [19]: > 50 µg/mL | IC50 (µg/mL), single-round pseudovirus neutralization [20]: > 50 µg/mL | IC50 (µg/mL), single-round pseudovirus neutralization [21]: > 50 µg/mL | IC50 (µg/mL), pseudovirus neutralization [22]: 0.562 µg/mL

PGT-142 (4995_E20) (antibody)
IC50 [23]: 0.383 µg/mL | IC50, pseudovirus neutralization [24]: 12.5 µg/mL | IC50 [25]: 21.7 µg/mL | IC50, pseudovirus neutralization [26]: 0.192 µg/mL | IC50, pseudovirus neutralization [27]: > 50 µg/mL

PGT-145 (4995_P16) (antibody)
IC50 [23]: 0.045 µg/mL | IC50, pseudovirus neutralization [24]: 0.41 µg/mL | IC50 [25]: 14.4 µg/mL | IC50, pseudovirus neutralization [26]: 0.03 µg/mL | IC50, pseudovirus neutralization [27]: 0.721 µg/mL

5343_B08 (PGT-135) (antibody)
IC50, pseudovirus neutralization [1]: > 50 µg/mL | IC50 (µg/mL), pseudovirus neutralization [2]: > 50 µg/mL | IC50 (ug/mL), pseudovirus neutralization [3]: 0.0433 µg/mL | Fold IC50 increase relative to wild-type (pseudovirus neutralization) [4]: 0.8 fold | IC50 (µg/mL), pseudovirus neutralization [5]: 0.088 µg/mL | Fold IC50 increase relative to wild-type (pseudovirus neutralization) [6]: 5 fold | IC50, pseudovirus neutralization [7]: 0.636 µg/mL | Fold IC50 increase relative to wild-type (pseudovirus neutralization) [8]: 0.1 fold | IC50 (µg/mL), pseudovirus neutralization [9]: > 50 µg/mL | IC50, pseudovirus neutralization [10]: > 50 µg/mL | IC50 (µg/mL), pseudovirus neutralization [11]: > 50 µg/mL | Fold IC50 increase relative to wild-type (pseudovirus neutralization) [13]: 1 fold | IC50, pseudovirus neutralization [14]: 0.264 µg/mL | IC50 (µg/mL), pseudovirus neutralization [15]: > 50 µg/mL

4995_E20 (PGT-142) (antibody)
IC50, pseudovirus neutralization [16]: 4.72 µg/mL | IC50 (µg/mL), pseudovirus neutralization [17]: > 50 µg/mL | IC50 (µg/mL), pseudovirus neutralization [18]: > 50 µg/mL | IC50 (µg/mL), pseudovirus neutralization [19]: > 50 µg/mL | IC50 (µg/mL), single-round pseudovirus neutralization [20]: > 50 µg/mL | IC50 (µg/mL), single-round pseudovirus neutralization [21]: > 50 µg/mL | IC50 (µg/mL), pseudovirus neutralization [22]: 0.076 µg/mL

PGT-143 (4980_N08) (antibody)
IC50 [23]: 1.11 µg/mL | IC50, pseudovirus neutralization [24]: 44.6 µg/mL | IC50 [25]: > 50 µg/mL | IC50, pseudovirus neutralization [26]: 0.2 µg/mL | IC50, pseudovirus neutralization [27]: > 50 µg/mL

5114_A19 (PGT-128) (antibody)
IC50, pseudovirus neutralization [1]: > 50 µg/mL | IC50 (µg/mL), pseudovirus neutralization [2]: > 50 µg/mL | Fold IC50 increase relative to wild-type (pseudovirus neutralization) [4]: 0.2 fold | IC50 (µg/mL), pseudovirus neutralization [5]: 0.007 µg/mL | Fold IC50 increase relative to wild-type (pseudovirus neutralization) [6]: 0.5 fold | IC50, pseudovirus neutralization [7]: 0.007 µg/mL | Fold IC50 increase relative to wild-type (pseudovirus neutralization) [8]: 1.3 fold | IC50 (µg/mL), pseudovirus neutralization [9]: 0.138 µg/mL | IC50, pseudovirus neutralization [10]: > 50 µg/mL | IC50 (µg/mL), pseudovirus neutralization [11]: 0.03 µg/mL | Fold IC50 increase relative to wild-type (pseudovirus neutralization) [13]: 0.9 fold | IC50, pseudovirus neutralization [14]: 0.01 µg/mL | IC50 (µg/mL), pseudovirus neutralization [15]: 1.21 µg/mL

PGT-144 (4970_K22) (antibody)
IC50 [23]: > 50 µg/mL | IC50, pseudovirus neutralization [24]: > 50 µg/mL | IC50 [25]: > 40 µg/mL | IC50, pseudovirus neutralization [26]: 0.459 µg/mL | IC50, pseudovirus neutralization [27]: > 50 µg/mL

VRC01 (antibody)
IC50, pseudovirus neutralization [16]: 1.81 µg/mL | IC50 [23]: 0.091 µg/mL | IC50 (µg/mL), pseudovirus neutralization [17]: 0.252 µg/mL | IC50 (µg/mL), pseudovirus neutralization [18]: > 50 µg/mL | IC50 (µg/mL), pseudovirus neutralization [19]: 1.16 µg/mL | IC50 (µg/mL), single-round pseudovirus neutralization [20]: 0.515 µg/mL | IC50, pseudovirus neutralization [24]: 0.435 µg/mL | IC50 (µg/mL), single-round pseudovirus neutralization [21]: > 50 µg/mL | IC50 (µg/mL), pseudovirus neutralization [22]: 0.056 µg/mL | IC50 [25]: 0.197 µg/mL | IC50, pseudovirus neutralization [26]: 3.22 µg/mL | IC50, pseudovirus neutralization [27]: 0.377 µg/mL

4980_N08 (PGT-143) (antibody)
IC50, pseudovirus neutralization [16]: 14 µg/mL | IC50 (µg/mL), pseudovirus neutralization [17]: > 50 µg/mL | IC50 (µg/mL), pseudovirus neutralization [18]: > 50 µg/mL | IC50 (µg/mL), pseudovirus neutralization [19]: > 50 µg/mL | IC50 (µg/mL), single-round pseudovirus neutralization [20]: > 50 µg/mL | IC50 (µg/mL), single-round pseudovirus neutralization [21]: > 50 µg/mL | IC50 (µg/mL), pseudovirus neutralization [22]: 0.107 µg/mL

4993_K13 (PGT-141) (antibody)
IC50, pseudovirus neutralization [16]: 14.2 µg/mL | IC50 (µg/mL), pseudovirus neutralization [17]: > 50 µg/mL | IC50 (µg/mL), pseudovirus neutralization [18]: > 50 µg/mL | IC50 (µg/mL), pseudovirus neutralization [19]: > 50 µg/mL | IC50 (µg/mL), single-round pseudovirus neutralization [20]: > 50 µg/mL | IC50 (µg/mL), single-round pseudovirus neutralization [21]: > 50 µg/mL | IC50 (µg/mL), pseudovirus neutralization [22]: 0.222 µg/mL

5136_H01 (PGT-131) (antibody)
IC50, pseudovirus neutralization [1]: > 50 µg/mL | IC50 (µg/mL), pseudovirus neutralization [2]: > 50 µg/mL | Fold IC50 increase relative to wild-type (pseudovirus neutralization) [4]: 1.9 fold | IC50 (µg/mL), pseudovirus neutralization [5]: > 50 µg/mL | Fold IC50 increase relative to wild-type (pseudovirus neutralization) [6]: 1 fold | IC50, pseudovirus neutralization [7]: 15.4 µg/mL | Fold IC50 increase relative to wild-type (pseudovirus neutralization) [8]: 4.8 fold | IC50 (µg/mL), pseudovirus neutralization [9]: > 50 µg/mL | IC50, pseudovirus neutralization [10]: > 50 µg/mL | IC50 (µg/mL), pseudovirus neutralization [11]: 1.36 µg/mL | Fold IC50 increase relative to wild-type (pseudovirus neutralization) [13]: 0.9 fold | IC50, pseudovirus neutralization [14]: 0.021 µg/mL | IC50 (µg/mL), pseudovirus neutralization [15]: > 50 µg/mL
